Source: paper PMC10110466 (Nature biotechnology, 2022)

Target: T1, soluble human IL-2Rβγ complex (human, UniProt P31785 23-262; P14784 27-240, biotin)
T1 sequence (looked up) 1: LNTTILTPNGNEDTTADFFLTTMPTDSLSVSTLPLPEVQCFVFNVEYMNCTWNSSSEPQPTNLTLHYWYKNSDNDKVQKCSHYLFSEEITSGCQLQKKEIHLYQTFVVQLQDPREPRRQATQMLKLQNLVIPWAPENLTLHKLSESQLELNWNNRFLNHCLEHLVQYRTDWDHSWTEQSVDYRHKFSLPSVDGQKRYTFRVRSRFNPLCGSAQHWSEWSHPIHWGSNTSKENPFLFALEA
T1 sequence (looked up) 2: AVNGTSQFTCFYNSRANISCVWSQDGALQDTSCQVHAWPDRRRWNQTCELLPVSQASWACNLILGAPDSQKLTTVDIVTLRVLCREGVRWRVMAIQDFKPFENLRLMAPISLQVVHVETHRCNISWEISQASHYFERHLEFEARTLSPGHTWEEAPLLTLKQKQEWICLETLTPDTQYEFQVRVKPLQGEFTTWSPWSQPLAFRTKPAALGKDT
Assay: cell-based or functional assay

B1: Neo2A (peptide)
peptide: PKKKIQLHAEHALYDALMILNIVKTNS
  STAT5 phosphorylation in YT-1 human NK cells, EC50: > 40 µM
